Measurements: article PMC4005678

Molecular target: Klf4 ZnF1-3 DNA-binding domain (mouse) (UniProt Q60793)
Assay: fluorescence polarization
Conditions: FP: 20 mM Tris-HCl pH 7.5, 150 mM NaCl, 5% (v/v) glycerol, 0.5 mM TCEP, ~22 C, probe 10 nM (WT) or 1 nM (E446A)

Chain of Klf4 ZnF1-3 DNA-binding domain (mouse) (Q60793 396-483): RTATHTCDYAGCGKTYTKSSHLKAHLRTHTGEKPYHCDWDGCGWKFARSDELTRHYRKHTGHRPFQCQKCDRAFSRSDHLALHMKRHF

Work on “GAGGCGTGGC / TTGCCACGCCTC [Klf4 site 5fC/M]” yielded a binding signal (fold weaker than M/M) (5fC at position 5 of strand 1, 5mC at position 7 of strand 2) of 3.
For “GAGGCGTGGC / TTGCCACGCCTC [Klf4 site 5caC/M]”, the binding signal (fold weaker than M/M) (5caC at position 5 of strand 1, 5mC at position 7 of strand 2) was 6.
“GAGGCGTGGC / TTGCCACGCCTC [Klf4 site C/M]” was tested, and the binding signal (fold weaker than M/M) (repeat series, C at position 5 of strand 1, 5mC at position 7 of strand 2) was 1.5 and the binding signal (fold Kd vs M/M) (text: difference only ~40%, C at position 5 of strand 1, 5mC at position 7 of strand 2) was 1.4.
With “GAGGCGTGGC / TTGCCACGCCTC [Klf4 site 5hmC/M]” the binding signal (fold weaker than M/M) (5hmC at position 5 of strand 1, 5mC at position 7 of strand 2) was 2.
With “GAGGCGTGGC / TTGCCACGCCTC [Klf4 site C/C]” the binding signal (fold weaker than M/M) was 1.5.
